# Assay results taken from US20120047600A1, “CAFFEOYL COA REDUCTASE” (priority 2010, published 2012).
# B1: Medicago CCR2 (Medicago truncatula) (protein)
# chain: MPAYDNTSSVSGGDQTVCVTGAGGFIASWLVKLLLERGYTVRGTVRNPEDPKNGHLKELEGARERLTLHKVDLLDLQSIQSVVHGCHGVFHTASPVTDNPDEMLEPAVNGTKNVIIASAEAKVRRVVFTSSIGTVYMDPNTSRDVVVDESYWSDLEHCKNTKNWYCYGKTVAEQSAWDIAKENQVDLVVVNPVVVLGPLLQPTINASTIHILKYLNGAAKTYVNATQSYVHVKDVALAHLLVYETNSASGRYICCETALHRGEVVEILAKYFPEYPLPTKCSDEKNPRVKPYKFSNQKLKDLGLEFTPVKQCLYDTVRSLQEKGHLPIPPMQEDSA
# B2: Medicago CCR1 (Medicago truncatula) (protein)
# chain: MPAATAAAAAESSSVSGETICVTGAGGFIASWMVKLLLEKGYTVRGTLRNPDDPKNGHLKKLEGAKERLTLVKVDLLDLNSVKEAVNGCHGVFHTASPVTDNPEEMVEPAVNGAKNVIIAGAEAKVRRVVFTSSIGAVYMDPNRSVDVEVDESCWSDLEFCKKTKNWYCYGKAVAEAAAWDVAKEKGVDLVVVNPVLVLGPLLQPTINASTIHILKYLTGSAKTYANATQAYVHVRDVALAHILVYEKPSASGRYLCAETSLHRGELVEILAKYFPEYPIPTKCSDEKNPRVKPHIFSNKKLKDLGLEFTPVSECLYETVKSLQDQGHLSIPNKEDSLAVKS
# What was measured:
# Format in all cases: biochemical, M. truncatula
# Medicago CCR1 = Medicago CCR1 (Medicago truncatula, UniProt A0A072VDF2); assay: CCR enzyme activity assay with purified recombinant Medicago CCR1 expressed in E. coli; details: for CCR1 activity with substrate: qualitative, FIG. 5A,C
# From the text: (§1) To assess the potential of Medicago CCRs to produce caffeoyl aldehyde, CCR1 and CCR2 were expressed in E. coli and assayed the purified recombinant enzymes with varying concentrations of each of the four potential substrates, 4-coumaroyl-, caffeoyl-, feruloyl- and sinapoyl-CoAs. Briefly, the coding regions of CCR1 and CCR2 were amplified from the original cDNA clones with introduction of NheI enzyme sites before the ATG start codons, a BamHI site after the CCR1 stop codon, and an XhoI site after the CCR2 stop codon. The primers EpCCR1F and EpCCR1R (see Table 3 below) were used for amplification of CCR1, and EpCCR2F and EpCCR2R were used for amplification of CCR2. The PCR products were cloned into T-vector (Promega). After confirmation by sequencing, both CCR sequences were subcloned into pET28a vector (Novagen) and the resulting constructs introduced into E. coli strain BL21 ([…]) (Novagen). The clones with correct inserts were grown at 37° C. until OD600 reached about 0.6, IPTG was added to a final concentration at 0.25 mM, and culture continued at 16° C. overnight. Induced E. coli cells were harvested by centrifugation at 5,000 g for 10 min, frozen in liquid nitrogen and stored at −80° C.
# All enzyme purification steps were carried out at 4° C. […]
# (§2) For CCR enzyme activity assays purified CCR protein (2.5 μg) was mixed with assay buffer (100 mM phosphate pH 6.25, 10 mM 2-mercaptoethanol, 0.2 mM NADPH and cinnamoyl CoA substrates at the indicated concentration) in a final volume of 500 μl. […] Compounds were identified by comparing their UV spectra and retention times with authentic standards of hydroxycinnamoyl aldehydes, and quantified by means of standard curves with correction for recovery of internal standards. Protein concentrations were determined using Bradford reagent (Bio-Rad). For kinetic analysis at various substrate concentrations, enzyme velocity curves were analyzed using Sigmaplot 10 software (Systat Software Inc.).
# Medicago CCR2 = Medicago CCR2 (Medicago truncatula, UniProt G7JEE5); assay: CCR enzyme activity assay with purified recombinant Medicago CCR2 expressed in E. coli; details: for CCR2 activity at higher substrate concentrations: substrate inhibition, FIG. 5C,D
# From the text: as §1
# (§3) All enzyme purification steps were carried out at 4° C. The harvested cells were suspended in extraction buffer (100 mM Hepes-NaOH, pH 7.5, 500 mM NaCl, 10 mM imidazole, 10% glycerol, 10 mM mercaptoethanol, 1 mM EDTA, and 1 mM PMSF), sonicated three times for 20 s and centrifuged at 16,000 g for 10 min. The supernatants were mixed with Ni-NTA His-bind resin (Promega). After washing three times in extraction buffer without PMSF, the recombinant proteins were eluted with elution buffer (100 mM Hepes-NaOH, 10% glycerol, 1 mM EDTA, 10 mM mercaptoethanol, and 500 mM imidazole) and the protein stored at −80 ° C. until assay.
# as §2, with “μl. The reaction was carried out at 30° C. for 5 min and then terminated with the addition of 70 μL 24% trichloroacetic acid. The reaction mixture was extracted with ethyl acetate (0.6 ml×3) and the combined organic phases dried under a stream of N2.” for “μl.”
# [1] = substrate: CC(C)(COP(=O)(O)OP(=O)(O)OC[C@H]1O[C@@H](n2cnc3c(N)ncnc32)[C@H](O)[C@@H]1OP(=O)(O)O)[C@@H](O)C(=O)NCCC(=O)NCCSC(=O)/C=C/c1ccc(O)c(O)c1; assay: as above; details: other: CCR2; compound as substrate; S0.5 given in place of Km for coumaroyl and caffeoyl CoAs (sigmoidal velocity curves)
# From the text: as §1, §3
# (§4) For CCR enzyme activity assays purified CCR protein (2.5 μg) was mixed with assay buffer (100 mM phosphate pH 6.25, 10 mM 2-mercaptoethanol, 0.2 mM NADPH and cinnamoyl CoA substrates at the indicated concentration) in a final volume of 500 μl. The reaction was carried out at 30° C. for 5 min and then terminated with the addition of 70 μL 24% trichloroacetic acid. The reaction mixture was extracted with ethyl acetate (0.6 ml×3) and the combined organic phases dried under a stream of N2. The pellet was re-suspended in 50 μL methanol and 25 μL was subjected to HPLC analysis out on a Beckman System Gold HPLC system consisting of a programmable solvent module 126, a System Gold 508 autosampler and a System Gold 168 diode array detector. A Waters Spherisorb ODS-2 5 μm reverse phase column (5 μm particle, 250×4.6 mm) was used. Compounds were identified by comparing their UV spectra and retention times with authentic standards of hydroxycinnamoyl aldehydes, and quantified by means of standard curves with correction for recovery of internal standards. Protein concentrations were determined using Bradford reagent (Bio-Rad). For kinetic analysis at various substrate concentrations, enzyme velocity curves were analyzed using Sigmaplot 10 software (Systat Software Inc.).
# [2] = substrate: COc1cc(/C=C/C(=O)SCCNC(=O)CCNC(=O)[C@H](O)C(C)(C)COP(=O)(O)OP(=O)(O)OC[C@H]2O[C@@H](n3cnc4c(N)ncnc43)[C@H](O)[C@@H]2OP(=O)(O)O)ccc1O; assay: as above; details: other: CCR2; compound as substrate; S0.5 given in place of Km for coumaroyl and caffeoyl CoAs (sigmoidal velocity curves)
# From the text: as §1, §3, §4
# [3] = substrate: CC(C)(COP(=O)(O)OP(=O)(O)OC[C@H]1O[C@@H](n2cnc3c(N)ncnc32)[C@H](O)[C@@H]1OP(=O)(O)O)[C@@H](O)C(=O)NCCC(=O)NCCSC(=O)/C=C/c1ccc(O)cc1; assay: as above; details: other: CCR2; compound as substrate; S0.5 given in place of Km for coumaroyl and caffeoyl CoAs (sigmoidal velocity curves)
# From the text: as §1, §3, §4
# [4] = substrate: COc1cc(/C=C/C(=O)SCCNC(=O)CCNC(=O)[C@H](O)C(C)(C)COP(=O)(O)OP(=O)(O)OC[C@H]2O[C@@H](n3cnc4c(N)ncnc43)[C@H](O)[C@@H]2OP(=O)(O)O)cc(OC)c1O; assay: as above; details: other: CCR2; compound as substrate; S0.5 given in place of Km for coumaroyl and caffeoyl CoAs (sigmoidal velocity curves)
# From the text: as §1, §3, §4
# [5] = substrate: CC(C)(COP(=O)(O)OP(=O)(O)OC[C@H]1O[C@@H](n2cnc3c(N)ncnc32)[C@H](O)[C@@H]1OP(=O)(O)O)[C@@H](O)C(=O)NCCC(=O)NCCSC(=O)/C=C/c1ccc(O)c(O)c1; assay: CCR enzyme activity assay with purified recombinant Medicago CCR1 expressed in E. coli; details: other: CCR1; compound as substrate; mean of three replicate sets of assays
# From the text: as §1, §3, §4
# [6] = substrate: COc1cc(/C=C/C(=O)SCCNC(=O)CCNC(=O)[C@H](O)C(C)(C)COP(=O)(O)OP(=O)(O)OC[C@H]2O[C@@H](n3cnc4c(N)ncnc43)[C@H](O)[C@@H]2OP(=O)(O)O)ccc1O; assay: as above; details: other: CCR1; compound as substrate; mean of three replicate sets of assays
# From the text: as §1, §3, §4
# [7] = substrate: CC(C)(COP(=O)(O)OP(=O)(O)OC[C@H]1O[C@@H](n2cnc3c(N)ncnc32)[C@H](O)[C@@H]1OP(=O)(O)O)[C@@H](O)C(=O)NCCC(=O)NCCSC(=O)/C=C/c1ccc(O)cc1; assay: as above; details: other: CCR1; compound as substrate; mean of three replicate sets of assays
# From the text: as §1, §3, §4
# [8] = substrate: COc1cc(/C=C/C(=O)SCCNC(=O)CCNC(=O)[C@H](O)C(C)(C)COP(=O)(O)OP(=O)(O)OC[C@H]2O[C@@H](n3cnc4c(N)ncnc43)[C@H](O)[C@@H]2OP(=O)(O)O)cc(OC)c1O; assay: as above; details: other: CCR1; compound as substrate; mean of three replicate sets of assays
# From the text: as §1, §3, §4
molecule,measurement,setting,value
COc1cc(/C=C/C(=O)SCCNC(=O)CCNC(=O)[C@H](O)C(C)(C)COP(=O)(O)OP(=O)(O)OC[C@H]2O[C@@H](n3cnc4c(N)ncnc43)[C@H](O)[C@@H]2OP(=O)(O)O)ccc1O [Feruloyl CoA],CCR1 activity with substrate,Medicago CCR1,most active
same,CCR2 activity at higher substrate concentrations,Medicago CCR2,strongly inhibited
CC(C)(COP(=O)(O)OP(=O)(O)OC[C@H]1O[C@@H](n2cnc3c(N)ncnc32)[C@H](O)[C@@H]1OP(=O)(O)O)[C@@H](O)C(=O)NCCC(=O)NCCSC(=O)/C=C/c1ccc(O)c(O)c1 [Caffeoyl CoA],CCR1 activity relative to CCR2 activity,Medicago CCR1; at 50 μM substrate (FIG. 5A),around 7%
same,CCR1 activity with substrate,Medicago CCR1,very low activity
COc1cc(/C=C/C(=O)SCCNC(=O)CCNC(=O)[C@H](O)C(C)(C)COP(=O)(O)OP(=O)(O)OC[C@H]2O[C@@H](n3cnc4c(N)ncnc43)[C@H](O)[C@@H]2OP(=O)(O)O)cc(OC)c1O [Sinapoyl CoA],CCR2 activity relative to CCR1,Medicago CCR2; at 20 μM substrate,almost twice as active
same,CCR2 activity,Medicago CCR2; at 50 μM substrate,virtually no activity
same,CCR2 activity at higher substrate concentrations,Medicago CCR2,strongly inhibited
B1,K0.5,[1],23.4 ± 0.80 µM
same,Vmax,[1],0.35 ± 0.01 µmol/min
same,kcat,[1],0.15 ± 0.005 s⁻¹
same,kcat/Km,[1],8170 ± 330 M⁻¹ s⁻¹
same,K0.5,[2],44.5 ± 4.5 µM
same,Vmax,[2],0.48 ± 0.05 µmol/min
same,kcat,[2],0.302 ± 0.0333 s⁻¹
same,kcat/Km,[2],6670 ± 830 M⁻¹ s⁻¹
same,K0.5,[3],12.4 ± 1.0 µM
same,Vmax,[3],0.44 ± 0.01 µmol/min
same,kcat,[3],0.29 ± 0.0067 s⁻¹
same,kcat/Km,[3],15000 ± 500 M⁻¹ s⁻¹
same,K0.5,[4],32.7 ± 3.6 µM
same,Vmax,[4],0.32 ± 0.02 µmol/min
same,kcat,[4],0.2 ± 0.0183 s⁻¹
same,kcat/Km,[4],6170 ± 830 M⁻¹ s⁻¹
B2,K0.5,[5],161 ± 6.8 µM
same,Vmax,[5],0.085 ± 0.0 µmol/min
same,kcat,[5],0.0517 ± 0.0012 s⁻¹
same,kcat/Km,[5],317 ± 0 M⁻¹ s⁻¹
same,K0.5,[6],54.5 ± 3.2 µM
same,Vmax,[6],1.64 ± 0.11 µmol/min
same,kcat,[6],1 ± 0.0342 s⁻¹
same,kcat/Km,[6],19000 ± 1300 M⁻¹ s⁻¹
same,K0.5,[7],56.8 ± 4.7 µM
same,Vmax,[7],0.25 ± 0.01 µmol/min
same,kcat,[7],0.15 ± 0.00167 s⁻¹
same,kcat/Km,[7],2670 ± 1700 M⁻¹ s⁻¹
same,K0.5,[8],7.2 ± 0.4 µM
same,Vmax,[8],0.15 ± 0.01 µmol/min
same,kcat,[8],0.0917 ± 0.00233 s⁻¹
same,kcat/Km,[8],11300 ± 830 M⁻¹ s⁻¹
